The assay has as its target T1, hen egg white lysozyme (hen, UniProt P00698 19-147, biotinylated (HEL-b); sites not stated).
T1 construct: also called lyzozyme; HEL-b (biotinylated)
The assay can be described thus: yeast display selection.

T1 sequence (P00698 19-147 limits assumed): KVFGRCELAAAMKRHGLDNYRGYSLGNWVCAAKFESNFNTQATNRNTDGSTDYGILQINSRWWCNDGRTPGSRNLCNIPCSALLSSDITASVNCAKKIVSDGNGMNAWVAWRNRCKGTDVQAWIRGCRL

B1: SEQ ID NO 100 (designed binder)
chain: VSDVPRDLEVVAATPTSLLISWDAPAVTVRYYRITYGEEEEHPQEFTVPGSKSTATISSPQRGVDYTITVYAVTGRGESPASSKPISINYYSYY
For B1, the binding result is “binds”.

B2: SEQ ID NO 107 (designed binder)
chain: VSDVPRDLEVVAATPTSLLISWDAPAVTVRYYRITYGESGRRGQEFTVPGSKSTATISSPSLEVDYTITVYAVTGRGESPASSKPISINYRSGY
As to B2, the binding result was “binds”.

B3: SEQ ID NO 102 (designed binder)
chain: VSDVPRDLEVVAATPTSLLISWDAPAVTVRYYRITYGEYGALEQEFTVPGSKSTATISRSQAEVDYTITVYAVTGRGESPASSKPISINYASYY
Regarding B3, the binding result is “binds”.

B4: SEQ ID NO 112 (designed binder)
chain: VSDVPRDLEVVAATPTSLLISWDAPAVTVRYYRITYGEQYYHQGRRQEFTVPGSKSTATISRYGGSVDYTITVYAVTGRGESPASSKPISINYYAYG
With B4, the binding result is reported as “binds”.

B5: SEQ ID NO 94 (designed binder)
chain: VSDVPRDLEVVAATPTSLLISWDAPAVTVRYYRITYGEYEHYYQEFTVPGSKSTATISPYAGGVDYTITVYAVTGRGESPASSKPISINYSESE
Regarding B5, the binding result is “binds”.

B6: SEQ ID NO 89 (designed binder)
chain: VSDVPRDLEVVAATPTSLLISWDAPAVTVRYYRITYGEGRHPSYQEFTVPGSKSTATISPSYSRVDYTITVYAVTGRGESPASSKPISINYSRER
As to B6, the binding result was “binds”.

B7: SEQ ID NO 103 (designed binder)
chain: VSDVPRDLEVVAATPTSLLISWDAPAVTVRYYRITYGESREGGQEFTVPGSKSTATISSYQSEVDYTITVYAVTGRGESPASSKPISINYARSR
Turning to B7, the binding result is recorded as “binds”.

B8: SEQ ID NO 104 (designed binder)
chain: VSDVPRDLEVVAATPTSLLISWDAPAVTVRYYRITYGEGQQGGQEFTVPGSKSTATISAYRGPVDYTITVYAVTGRGESPASSKPISINYYGSY
On to B8, for which the binding result is “binds”.

B9: SEQ ID NO 105 (designed binder)
chain: VSDVPRDLEVVAATPTSLLISWDAPAVTVRYYRITYGEGRRYGQEFTVPGSKSTATISELLSEVDYTITVYAVTGRGESPASSKPISINYSLRY
Take B9: the binding result is “binds”.

B10: SEQ ID NO 111 (designed binder)
chain: VSDVPRDLEVVAATPTSLLISWDAPAVTVRYYRITYGESEGGSSRSQEFTVPGSKSTATISRSYQPVDYTITVYAVTGRGESPASSKPISINYGSYP
B10: the binding result is on record as “binds”.

B11: SEQ ID NO 110 (designed binder)
chain: VSDVPRDLEVVAATPTSLLISWDAPAVTVRYYRITYGESSGYAERGQEFTVPGSKSTATISSPGARVDYTITVYAVTGRGESPASSKPISINYSSLG
B11: the binding result is recorded as “binds”.

B12: SEQ ID NO 90 (designed binder)
chain: VSDVPRDLEVVAATPTSLLISWDAPAVTVRYYRITYGEGERPYQEFTVPGSKSTATISYAHYSVDYTITVYAVTGRGESPASSKPISINYERRS
B12: the binding result is given as “binds”.

B13: SEQ ID NO 108 (designed binder)
chain: VSDVPRDLEVVAATPTSLLISWDAPAVTVRYYRITYGEPRRRYQEFTVPGSKSTATISPGGQSVDYTITVYAVTGRGESPASSKPISINYGRGY
In the case of B13, the binding result is given as “binds”.

B14: SEQ ID NO 93 (designed binder)
chain: VSDVPRDLEVVAATPTSLLISWDAPAVTVRYYRITYGEYPREYQEFTVPGSKSTATISRYGYHVDYTITVYAVTGRGESPASSKPISINYSGYS
B14: the binding result is reported as “binds”.

B15: SEQ ID NO 95 (designed binder)
chain: VSDVPRDLEVVAATPTSLLISWDAPAVTVRYYRITYGEYEYARQEFTVPGSKSTATISRLYRRVDYTITVYAVTGRGESPASSKPISINYYRSA
Regarding B15, the binding result is on record as “binds”.

B16: SEQ ID NO 96 (designed binder)
chain: VSDVPRDLEVVAATPTSLLISWDAPAVTVRYYRITYGEYHYSEQEFTVPGSKSTATISYYEPRVDYTITVYAVTGRGESPASSKPISINYHSSR
Regarding B16, the binding result was “binds”.

B17: SEQ ID NO 92 (designed binder)
chain: VSDVPRDLEVVAATPTSLLISWDAPAVTVRYYRITYGEYERYRQEFTVPGSKSTATISSQSRYVDYTITVYAVTGRGESPASSKPISINYGRPA
For B17, the binding result is “binds”.

B18: SEQ ID NO 97 (designed binder)
chain: VSDVPRDLEVVAATPTSLLISWDAPAVTVRYYRITYGEQRYLRQEFTVPGSKSTATISSRSARVDYTITVYAVTGRGESPASSKPISINYPYSA
Regarding B18, the binding result was “binds”.

B19: SEQ ID NO 91 (designed binder)
chain: VSDVPRDLEVVAATPTSLLISWDAPAVTVRYYRITYGEYQRSRQEFTVPGSKSTATISSYGGYVDYTITVYAVTGRGESPASSKPISINYRSLR
On to B19, for which the binding result is given as “binds”.

B20: SEQ ID NO 88 (designed binder)
chain: VSDVPRDLEVVAATPTSLLISWDAPAVTVRYYRITYGESSSSRRQEFTVPGSKSTATISGEESYVDYTITVYAVTGRGESPASSKPISINYAEER
B20: the binding result is “binds”.

B21: SEQ ID NO 87 (designed binder)
chain: VSDVPRDLEVVAATPTSLLISWDAPAVTVRYYRITYGEAYGESYQEFTVPGSKSTATISQSPEYVDYTITVYAVTGRGESPASSKPISINYASEY
Consider B21, for which the binding result was “binds”.

B22: SEQ ID NO 98 (designed binder)
chain: VSDVPRDLEVVAATPTSLLISWDAPAVTVRYYRITYGERSSRSQEFTVPGSKSTATISHSREPVDYTITVYAVTGRGESPASSKPISINYQYRY
On to B22, for which the binding result is “binds”.

B23: SEQ ID NO 101 (designed binder)
chain: VSDVPRDLEVVAATPTSLLISWDAPAVTVRYYRITYGEESSRPQEFTVPGSKSTATISQARARVDYTITVYAVTGRGESPASSKPISINYRRYR
Take B23: the binding result is recorded as “binds”.

B24: SEQ ID NO 99 (designed binder)
chain: VSDVPRDLEVVAATPTSLLISWDAPAVTVRYYRITYGESQSHSQEFTVPGSKSTATISHPSRPVDYTITVYAVTGRGESPASSKPISINYPRSE
B24: the binding result is reported as “binds”.

B25: SEQ ID NO 106 (designed binder)
chain: VSDVPRDLEVVAATPTSLLISWDAPAVTVRYYRITYGESGYRYQEFTVPGSKSTATISGYREHVDYTITVYAVTGRGESPASSKPISINYQESY
As to B25, the binding result was “binds”.

B26: SEQ ID NO 109 (designed binder)
chain: VSDVPRDLEVVAATTTSLLISWDAPAVTVRYYRITYGESGRGAQEFTVPGSKSTATISGLGPPVDYTITVYAVTGRGESPASSKPISINYRSQH
B26: the binding result is given as “binds”.

(Values after patent publication US9296810 (Novartis, dated 2016).)
